Data set [1] deals with the molecule itself. Description: pull-down; purified Flag-tagged MBP-Sgol2cc (31-117) pulled down by purified His-tagged MBP-Sgol2cc (31-117) with the same substitution; western blots. Background: A western blot detects proteins with antibodies after separation by electrophoresis.
Data set [2] deals with the molecule itself. Description: pull-down; MBP-Sgol2cc-His and MBP-Sgol2cc-Flag co-expressed in E. coli; 10 mg of extract on Talon beads 2 hr at 4°C (50 mM sodium phosphate pH 7, 250 mM NaCl, 10% glycerol, 0.02% Triton X-100), washes with 23 mM imidazole; blots with anti-Flag and anti-His; the paper calls it co-immunoprecipitation.

The values below come from paper PMC3816256, “Sgol2 provides a regulatory platform that coordinates essential cell cycle processes during meiosis I in oocytes” (eLife, 2013).

B1: MBP-Sgol2cc-Flag, wild type (mouse Sgol2 coiled coil region 31-117) (domain or fragment, UniProt Q7TSY8 31-117, looked up)
chain: SLASKIKAKILNNSSIFKISLKHNNRALARALSKEKENSRRITTEKMQLQKEVEKLNFENTFLRLKLNTLNKKLVEIESHVSNDLLT
notes: In the dimerization assays the second copy (bait) carried a His tag in place of Flag (MBP-Sgol2cc-His, pET28b backbone; Flag copy in pMAL-c2x); also called MBP-mSgol2cc-Flag; MBP-Sgol2cc-His; source: also His- and Flag-tagged copies co-expressed, in extract; not shown: MBP, N-terminal, kept; Flag, C-terminal, kept
For B1, the binding result in data set [1] is “binds”.

B2: MBP-Sgol2cc-Flag N54A (domain or fragment, mouse, UniProt Q7TSY8 31-117, looked up)
chain: SLASKIKAKILNNSSIFKISLKHANRALARALSKEKENSRRITTEKMQLQKEVEKLNFENTFLRLKLNTLNKKLVEIESHVSNDLLT
notes: In the dimerization assay the second copy (bait) carried a His tag in place of Flag and the same substitution; not shown: MBP, N-terminal, kept; Flag, C-terminal, kept
Take B2: in data set [1], the binding result is “binds”.

B3: MBP-Sgol2cc-Flag R56A (domain or fragment, mouse, UniProt Q7TSY8 31-117, looked up)
chain: SLASKIKAKILNNSSIFKISLKHNNAALARALSKEKENSRRITTEKMQLQKEVEKLNFENTFLRLKLNTLNKKLVEIESHVSNDLLT
notes: as for B2
As for B3, the binding result in data set [1] is given as “binds”.

B4: MBP-Sgol2cc-Flag L51A (domain or fragment, mouse, UniProt Q7TSY8 31-117, looked up)
chain: SLASKIKAKILNNSSIFKISAKHNNRALARALSKEKENSRRITTEKMQLQKEVEKLNFENTFLRLKLNTLNKKLVEIESHVSNDLLT
notes: as for B2
Consider B4, for which the binding result in data set [1] is “binds”.

B5: MBP-Sgol2cc-Flag E82K (domain or fragment, mouse, UniProt Q7TSY8 31-117, looked up)
chain: SLASKIKAKILNNSSIFKISLKHNNRALARALSKEKENSRRITTEKMQLQKKVEKLNFENTFLRLKLNTLNKKLVEIESHVSNDLLT
notes: as for B2
As for B5, the binding result in data set [1] is “binds”.

B6: MBP-Sgol2cc-Flag E82A (domain or fragment, mouse, UniProt Q7TSY8 31-117, looked up)
chain: SLASKIKAKILNNSSIFKISLKHNNRALARALSKEKENSRRITTEKMQLQKAVEKLNFENTFLRLKLNTLNKKLVEIESHVSNDLLT
notes: as for B2
With B6, the binding result in data set [1] is “binds”.

B7: MBP-Sgol2cc-Flag N55I (domain or fragment, mouse, UniProt Q7TSY8 31-117, looked up)
chain: SLASKIKAKILNNSSIFKISLKHNIRALARALSKEKENSRRITTEKMQLQKEVEKLNFENTFLRLKLNTLNKKLVEIESHVSNDLLT
notes: as for B2
In the case of B7, the binding result in data set [1] was “binds”.

B8: MBP-Sgol2cc-Flag L51A/N54A/R56A (3A) (domain or fragment, mouse, UniProt Q7TSY8 31-117, looked up)
chain: SLASKIKAKILNNSSIFKISAKHANAALARALSKEKENSRRITTEKMQLQKEVEKLNFENTFLRLKLNTLNKKLVEIESHVSNDLLT
notes: In the dimerization assays the second copy (bait) carried a His tag in place of Flag and the same substitutions; also called 3A triple mutation; 3A mutant; source: also His- and Flag-tagged copies co-expressed, in extract; not shown: MBP, N-terminal, kept; Flag, C-terminal, kept
Take B8: in data set [2], the binding result is reported as “binds”.
